Where two headings read alike, the source gives them in different places. Primed or numbered codes have the meaning given here. No end group written: not given here. Bounds are passed on as bounds.

A short description of series [1]: Pharmacokinetics of apelin and apelin conjugates, intravenous. Format: in vivo, Sprague-Dawley rats. Conditions: for pharmacokinetic properties compared to unmodified apelin: ELISA (FIG. 5); for bioavailability improvement: AUC versus native apelin-13, 0.1 mg/kg intravenous. Here is the method:
FIG. 5: Pharmacokinetics of apelin and apelin conjugates. Apelin alone or conjugated to the Vitamin D-(25)-PEG2k-maleimide carrier, or the Vitamin D-(3)-PEG2k-aldehyde carrier were injected intravenously into Sprague-Dawley rats at 0.1 mg/kg. Plasma samples were analyzed for apelin concentration by ELISA in duplicate and the average value from three animals were plotted on the semi-log graph.
Plasma samples were taken at 5 min, and 0.5, 1, 2, 4, 8 and 24 hr and analyzed for the presence of apelin by quantitative ELISA (Phoenix Pharmaceuticals, Burlingame, Calif., Cat. No. EK-057-23). […] Unmodified apelin decayed to near-background levels within 5 minutes of injection.
The decay rates of the carrier-conjugates are complex and probably represent a combination of slower renal clearance and protection from protease degradation. A pharmacokinetic analysis of the data was then performed using WinNonLin (PharSight) and GraphPad (Prism).
(In an ELISA, binding on a coated surface is turned into a signal by an enzyme label.)

For series [2] the following is noted: Bertrand et al. 2015; cited from earlier work.
For series [3] the following is noted: in vivo; cited from earlier work.
In series [4] the target is T1, human FGF21 receptor (FGFR1), recruitment of co-receptor β-Klotho (Homo sapiens, UniProt P11362+Q86Z14).
T1 construct: host or cells: U2OS (PathHunter)
As to the kind of experiment: PathHunter U2OS FGFR1-β-Klotho Functional Assay. Conditions: PathHunter U2OS cells expressing FGFR1, β-Klotho recruitment, chemiluminescence. Format: cell-based. From the text:
In some embodiments, the activity of the FG21, when conjugated to a carrier, was substantially the same as unmodified protein. […] PathHunter® cells stably express human FGF21 receptor (FGFR1). They were monitored for recruitment of the co-receptor, β-Klotho, following exposure to the test compounds using the PathHunter® Detection reagent cocktail on a PerkinElmer Envision instrument with chemiluminescent signal detection. […] Thus, the FGF21 conjugates retained about the same receptor activity as the unmodified FGF21 protein or better.

Series [5] is described as follows: Pharmacokinetics of FGF21 conjugates, subcutaneous. The class given is in vivo, Sprague Dawley rats. Conditions: 0.1 mg/kg sc; for Cmax: plasma, human FGF21 ELISA. On the procedure:
The pharmacokinetics of FGF21 conjugates in Sprague Dawley rats were determined. Unmodified FGF21, VitD-(25)-PEG2K-FGF21 and VitD-(3)-PEG2K-FGF21 were compared. […] The samples were analyzed using commercial ELISA kits for human FGF21 (Millipore Cat. No. EZHFGF21-19K). […] Improvements in the mean residence time (MRT) and terminal rate constant (Lz) values were also observed.

The conditions of series [6]: natural state; WO03/011213, Kharitonenkov et al. 2005; cited from earlier work.
Where [7] appears, read: 0.1 mg/kg intravenous, plasma, ELISA.

T1 sequence (P11362 22-822): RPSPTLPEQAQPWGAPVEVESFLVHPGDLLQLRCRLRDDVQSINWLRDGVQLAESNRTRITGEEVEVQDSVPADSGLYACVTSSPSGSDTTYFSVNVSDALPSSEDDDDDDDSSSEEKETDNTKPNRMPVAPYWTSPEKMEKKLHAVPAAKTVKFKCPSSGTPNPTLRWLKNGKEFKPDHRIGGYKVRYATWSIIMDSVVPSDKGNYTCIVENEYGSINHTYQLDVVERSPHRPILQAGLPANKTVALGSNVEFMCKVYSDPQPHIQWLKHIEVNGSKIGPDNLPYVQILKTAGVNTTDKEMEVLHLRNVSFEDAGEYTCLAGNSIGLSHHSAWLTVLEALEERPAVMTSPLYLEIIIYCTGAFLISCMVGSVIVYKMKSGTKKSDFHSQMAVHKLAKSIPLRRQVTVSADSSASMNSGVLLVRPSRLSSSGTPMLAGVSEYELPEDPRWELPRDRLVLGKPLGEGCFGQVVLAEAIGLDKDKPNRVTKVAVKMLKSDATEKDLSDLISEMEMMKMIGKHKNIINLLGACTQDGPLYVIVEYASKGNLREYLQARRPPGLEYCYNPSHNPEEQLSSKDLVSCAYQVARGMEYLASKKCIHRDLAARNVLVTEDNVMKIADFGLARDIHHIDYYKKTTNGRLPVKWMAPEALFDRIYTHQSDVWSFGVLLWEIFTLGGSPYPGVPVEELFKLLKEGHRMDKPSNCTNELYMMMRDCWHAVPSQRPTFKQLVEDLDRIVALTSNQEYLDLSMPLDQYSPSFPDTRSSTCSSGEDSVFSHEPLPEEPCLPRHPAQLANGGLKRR
T1 sequence (Q86Z14 52-1044 limits assumed): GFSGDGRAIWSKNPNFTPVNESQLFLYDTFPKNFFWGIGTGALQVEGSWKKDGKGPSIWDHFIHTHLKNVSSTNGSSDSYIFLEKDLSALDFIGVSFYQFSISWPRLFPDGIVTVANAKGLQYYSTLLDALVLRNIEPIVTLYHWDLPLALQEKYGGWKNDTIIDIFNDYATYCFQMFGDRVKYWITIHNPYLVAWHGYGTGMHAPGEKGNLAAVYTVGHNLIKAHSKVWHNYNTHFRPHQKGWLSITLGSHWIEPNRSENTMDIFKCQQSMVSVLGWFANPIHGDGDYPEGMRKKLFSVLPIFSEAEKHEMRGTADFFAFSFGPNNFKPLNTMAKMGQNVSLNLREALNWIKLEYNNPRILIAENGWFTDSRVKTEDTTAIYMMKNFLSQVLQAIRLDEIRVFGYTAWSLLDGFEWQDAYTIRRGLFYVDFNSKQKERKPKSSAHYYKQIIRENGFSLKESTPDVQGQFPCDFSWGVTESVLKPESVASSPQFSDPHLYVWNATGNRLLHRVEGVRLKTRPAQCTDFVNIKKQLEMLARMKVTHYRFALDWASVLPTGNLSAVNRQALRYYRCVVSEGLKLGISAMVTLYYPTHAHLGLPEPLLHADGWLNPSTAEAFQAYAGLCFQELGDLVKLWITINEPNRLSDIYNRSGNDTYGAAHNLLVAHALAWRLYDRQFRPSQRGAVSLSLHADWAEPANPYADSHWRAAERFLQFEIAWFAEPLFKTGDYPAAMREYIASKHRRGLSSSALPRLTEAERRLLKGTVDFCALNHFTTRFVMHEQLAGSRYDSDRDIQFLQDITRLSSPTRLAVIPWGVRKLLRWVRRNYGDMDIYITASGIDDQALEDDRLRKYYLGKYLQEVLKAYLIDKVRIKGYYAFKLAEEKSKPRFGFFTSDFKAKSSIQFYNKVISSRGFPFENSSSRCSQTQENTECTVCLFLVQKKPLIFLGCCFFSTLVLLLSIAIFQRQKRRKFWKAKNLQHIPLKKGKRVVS

As usually defined, the AUC is concentration integrated over time. As to “VitD-(3)-PEG2K-apelin: Apelin-13 conjugated at N-terminal amine to Vitamin D-(3)-PEG2K-aldehyde carrier ({VitD‑(3)-PEG2K}-QRPRLSHKGPMPF)”, in series [1] (setting [7]), the AUC turned out to be 328 ng·h/mL. The “pharmacokinetic properties compared to unmodified apelin” value in series [1] (0.1 mg/kg intravenous, plasma) is on record as “significantly improved pharmacokinetic properties”. In series [1], the bioavailability improvement is listed as 820 fold.

As to `CSCC[C@H](NC(=O)[C@@H]1CCCN1C(=O)CNC(=O)[C@H](CCCCN)NC(=O)[C@H](Cc1cnc[nH]1)NC(=O)[C@H](CO)NC(=O)[C@H](CC(C)C)NC(=O)[C@H](CCCNC(=N)N)NC(=O)[C@@H]1CCCN1C(=O)[C@H](CCCNC(=N)N)NC(=O)[C@@H](N)CCC(N)=O)C(=O)N1CCC[C@H]1C(=O)N[C@@H](Cc1ccccc1)C(=O)O` [apelin-13, reference compound], the “time to decay to near-background levels after injection” value in series [1] (setting [7]) was no more than 5 min. In addition, in series [1] (Sprague-Dawley, rat, 0.1 mg/kg intravenous, plasma, ELISA, read-out: AUC), the AUC amounted to 0.4 ng·h/mL. For the same molecule, the in vivo half-life in series [2] was no more than 0.333 h.

Take “VitD-(25)-PEG2K-C-apelin: C-apelin (SEQ ID NO:16, N-terminal cysteine) conjugated to VitD-(25)-PEG2K-maleimide carrier (CQRPRLSHKGPMPF; VitD-(25)-PEG2K-maleimide carrier conjugate)”: the AUC in series [1] (setting [7]) is 85 ng·h/mL. Also, the “pharmacokinetic properties compared to unmodified apelin” value in series [1] (0.1 mg/kg intravenous, plasma) was “improved pharmacokinetic properties”. The bioavailability improvement in series [1] stood at 213 fold.

Regarding “PTH: Parathyroid hormone, polypeptide containing 84 amino acids secreted by the parathyroid glands”, the half-life result in series [3] was “approximately 4 minutes”.

B1: FGF21: Modified FGF21 expressed in E. coli, I3C substitution and His6 tag, SEQ ID NO:22, not conjugated (protein)
chain: MHHHHHHHPCPDSSPLLQFGGQVRQRYLYTDDAQQTEAHLEIREDGTVGGAADQSPESLLQLKALKPGVIQILGVKTSRFLCQRPDGALYGSLHFDPEACSFRELLLEDGYNVYQSEAHGLPLHLPGNKSPHRDPAPRGPARFLPLPGLPPALPEPPGILAPQPPDVGSSDPLSMVGPSQGRSPSYAS
modifications: His6 tag
As a reminder, the EC50 is the concentration at which the effect is half-maximal. A lower EC50 goes with higher potency in that assay. One may read the MRT as the average time that molecules of a dose stay in the body. As usually defined, the Tmax is the time from dosing to the highest level. One may read the t½ as the time in which the quantity being followed falls by half. The low end stands for fast loss, the high end for slow loss. Usually Cmax stands for the maximum level reached in the sampled fluid or tissue. Take B1: the EC50 in series [4] was 0.16 µg/mL. Further, in series [5], the AUCtot was 228 h(ng/ml), the “Lz (terminal rate constant)” value was “.534 h⁻¹”, the MRT was 2.8 h and the Tmax amounted to 2 h. In series [5], this molecule had a t½ of 1.3 h and a Cmax of 59 ng/mL.

B2: VitD-(3)-PEG2K-FGF21: Modified FGF21 (SEQ ID NO:22) conjugated via free cysteine to VitD-(3)-PEG2K-maleimide (conjugate)
chain: MHHHHHHHPCPDSSPLLQFGGQVRQRYLYTDDAQQTEAHLEIREDGTVGGAADQSPESLLQLKALKPGVIQILGVKTSRFLCQRPDGALYGSLHFDPEACSFRELLLEDGYNVYQSEAHGLPLHLPGNKSPHRDPAPRGPARFLPLPGLPPALPEPPGILAPQPPDVGSSDPLSMVGPSQGRSPSYAS
modifications: VitD-PEG2K-maleimide conjugated at free cysteine
The molecule B2 returned an EC50 in series [4] of 0.40 µg/mL. For the same molecule, in series [5], the AUCtot is reported as 2727 h(ng/ml), the “Lz (terminal rate constant)” value was “.0604 h⁻¹”, the MRT is 18.9 h and the Tmax is recorded as 4 h. Besides, in series [5], the “half-life (t1/2)” value was 11.5 h, the “half-life improvement compared to unmodified FGF21” value amounted to 8.8 fold, the “improvement in AUC values versus unmodified FGF21” value was 12.0 fold and the t½ stood at 11.5 h. In addition, in series [5], the peak concentration (Cmax) was found to be 118 ng/mL.

B3: VitD-(25)-PEG2K-FGF21: Modified FGF21 (SEQ ID NO:22) conjugated via free cysteine to VitD-(25)-PEG2K-maleimide (conjugate)
chain: MHHHHHHHPCPDSSPLLQFGGQVRQRYLYTDDAQQTEAHLEIREDGTVGGAADQSPESLLQLKALKPGVIQILGVKTSRFLCQRPDGALYGSLHFDPEACSFRELLLEDGYNVYQSEAHGLPLHLPGNKSPHRDPAPRGPARFLPLPGLPPALPEPPGILAPQPPDVGSSDPLSMVGPSQGRSPSYAS
modifications: VitD-PEG2K-maleimide conjugated at free cysteine
In turn, B3 showed an EC50 in series [4] of 0.13 µg/mL. Further, in series [5], the AUCtot is on record as 1640 h(ng/ml), the “Lz (terminal rate constant)” value is “.131 h⁻¹”, the MRT is listed as 7.9 h and the Tmax was 2 h. In series [5], the “half-life (t1/2)” value is 5.3 h, the “half-life improvement compared to unmodified FGF21” value is 4.1 fold, the “improvement in AUC values versus unmodified FGF21” value was found to be 7.2 fold and the t½ is on record as 5.3 h. The Cmax in series [5] worked out at 115 ng/mL.

B4: FGF21 in its natural state: Fibroblast Growth Factor 21, protein that circulates in serum, natural state (protein, UniProt Q9NSA1 29-209, looked up)
Fibroblast growth factor 21: HPIPDSSPLLQFGGQVRQRYLYTDDAQQTEAHLEIREDGTVGGAADQSPESLLQLKALKPGVIQILGVKTSRFLCQRPDGALYGSLHFDPEACSFRELLLEDGYNVYQSEAHGLPLHLPGNKSPHRDPAPRGPARFLPLPGLPPALPEPPGILAPQPPDVGSSDPLSMVGPSQGRSPSYAS
B4: in series [6], the half-life in serum entry was “about 1.1 hours”.

The values are drawn from patent publication US11116816B2, “Therapeutic vitamin d conjugates” (Extend Biosciences, Inc., priority 2014, dated 2021).
